Reference: paper PMC13038408

Assays:
RSVF-multi-4 K29L = test: SPR
[1] = target: prefusion RSVF sc9-10 DS-Cav1-A149C;Y458C;S46G;E92D;S215P;K465Q thermostabilized variant (DS2) (respiratory syncytial virus) (UniProt P03420); test: SPR

Sequence of motavizumab Fab (VH): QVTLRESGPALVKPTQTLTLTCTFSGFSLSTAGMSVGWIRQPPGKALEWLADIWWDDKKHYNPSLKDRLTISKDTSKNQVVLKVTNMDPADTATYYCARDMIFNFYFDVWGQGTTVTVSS
Sequence of motavizumab Fab (VL): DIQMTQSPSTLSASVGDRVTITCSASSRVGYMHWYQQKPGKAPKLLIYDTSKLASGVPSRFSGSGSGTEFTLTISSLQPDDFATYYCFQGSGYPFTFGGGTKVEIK

Substance	Kd (RSVF-multi-4 K29L) [nM]	Kd [1] [nM]
RSV90 Fab	> 1000	0.9
motavizumab Fab	–	0.015
